Experimental findings from article PMC8208635 are described below.

This assay has as its target nascent, unphosphorylated PKC species (PDK1 binding, Fig. S9C) (UniProt P68403).

B1: PDK1 (enzyme)
chain: MARTTSQLYDAVPIQSSVVLCSCPSPSMVRTQTESSTPPGIPGGSRQGPAMDGTAAEPRPGAGSLQHAQPPPQPRKKRPEDFKFGKILGEGSFSTVVLARELATSREYAIKILEKRHIIKENKVPYVTRERDVMSRLDHPFFVKLYFTFQDDEKLYFGLSYAKNGELLKYIRKIGSFDETCTRFYTAEIVSALEYLHGKGIIHRDLKPENILLNEDMHIQITDFGTAKVLSPESKQARANSFVGTAQYVSPELLTEKSACKSSDLWALGCIIYQLVAGLPPFRAGNEYLIFQKIIKLEYDFPEKFFPKARDLVEKLLVLDATKRLGCEEMEGYGPLKAHPFFESVTWENLHQQTPPKLTAYLPAMSEDDEDCYGNYDNLLSQFGCMQVSSSSSSHSLSASDTGLPQRSGSNIEQYIHDLDSNSFELDLQFSEDEKRLLLEKQAGGNPWHQFVENNLILKMGPVDKRKGLFARRRQLLLTEGPHLYYVDPVNKVLKGEIPWSQELRPEAKNFKTFFVHTPNRTYYLMDPSGNAHKWCRKIQEVWRQRYQSHPDAAVQ
Turning to B1, the fold binding relative to the phosphorylated form was 2 fold.
